The record followed here is article PMC12170172, “Initiation of ERAD by the bifunctional complex of Mnl1/Htm1 mannosidase and protein disulfide isomerase” (Nature Structural & Molecular Biology, 2025).

What all share (conditions): both partners purified
For assay [1], the target named is T1, Pdi1 (protein disulfide isomerase) (S. cerevisiae, UniProt P17967 29-522).
T1 construct: Pdi1, protein disulfide isomerase of S. cerevisiae, untagged; Trx domains a, b, b′ and a′; amino acids 24–500 could be modelled; source: S. cerevisiae, overexpressed together with Mnl1–FLAG (GAL1 promoter), purified as a complex
T1 sequence (looked up): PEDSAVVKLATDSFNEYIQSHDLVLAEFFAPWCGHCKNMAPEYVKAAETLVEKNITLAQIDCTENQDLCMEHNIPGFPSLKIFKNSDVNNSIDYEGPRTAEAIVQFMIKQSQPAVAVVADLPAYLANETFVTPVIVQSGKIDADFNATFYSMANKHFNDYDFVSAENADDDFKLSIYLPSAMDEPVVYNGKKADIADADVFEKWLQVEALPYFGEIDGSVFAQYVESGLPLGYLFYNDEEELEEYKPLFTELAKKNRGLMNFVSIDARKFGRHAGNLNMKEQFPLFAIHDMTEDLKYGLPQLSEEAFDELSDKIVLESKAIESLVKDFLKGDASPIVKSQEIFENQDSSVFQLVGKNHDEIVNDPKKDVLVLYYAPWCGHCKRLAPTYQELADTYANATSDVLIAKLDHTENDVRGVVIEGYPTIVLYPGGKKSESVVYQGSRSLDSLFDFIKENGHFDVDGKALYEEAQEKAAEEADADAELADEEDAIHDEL
Briefly: cross-linking; competition: RBΔS, RBun or RBsc incubated with Mnl1–Pdi1 complex at the indicated molar ratios (tenfold excess in Fig. 6) in 25 mM HEPES pH 7.4, 150 mM NaCl, 0.1% Nonidet P-40, 2 mM CaCl2, 30 °C 30 min; then DPS 30 °C 30 min, N-ethylmaleimide; SDS-PAGE, Coomassie blue.

Assay [2] concerns the target T2, Mnl1 (C579S)–Pdi1 complex (S. cerevisiae, UniProt P38888 21-796; P17967 29-522, C579S).
T2 construct: Mnl1 (Htm1) of S. cerevisiae with a substituted loop cysteine; Pdi1 of S. cerevisiae, untagged; source: S. cerevisiae, overexpressed, purified (anti-FLAG M2 resin, Superdex 200); not shown: FLAG, C-terminal, kept
T2 sequence (looked up) 1: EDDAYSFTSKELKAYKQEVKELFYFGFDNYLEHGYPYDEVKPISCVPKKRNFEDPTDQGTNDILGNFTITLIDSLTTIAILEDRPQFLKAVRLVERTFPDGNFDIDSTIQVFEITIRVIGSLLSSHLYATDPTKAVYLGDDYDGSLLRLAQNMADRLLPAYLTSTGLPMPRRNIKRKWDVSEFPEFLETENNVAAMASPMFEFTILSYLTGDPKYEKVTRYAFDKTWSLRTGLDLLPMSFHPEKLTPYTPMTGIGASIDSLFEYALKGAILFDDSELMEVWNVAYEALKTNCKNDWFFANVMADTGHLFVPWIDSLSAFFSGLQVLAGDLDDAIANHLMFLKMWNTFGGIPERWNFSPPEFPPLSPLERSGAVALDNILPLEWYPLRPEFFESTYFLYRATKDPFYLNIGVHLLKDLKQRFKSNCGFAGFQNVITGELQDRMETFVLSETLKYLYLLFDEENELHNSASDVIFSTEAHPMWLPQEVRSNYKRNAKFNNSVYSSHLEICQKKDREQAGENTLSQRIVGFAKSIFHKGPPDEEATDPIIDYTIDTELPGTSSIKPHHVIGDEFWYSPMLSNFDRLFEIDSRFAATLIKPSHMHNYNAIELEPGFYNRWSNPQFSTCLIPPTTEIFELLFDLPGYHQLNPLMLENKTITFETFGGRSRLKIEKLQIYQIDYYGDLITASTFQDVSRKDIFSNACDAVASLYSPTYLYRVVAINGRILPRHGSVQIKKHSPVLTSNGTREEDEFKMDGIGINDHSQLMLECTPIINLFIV
T2 sequence (looked up) 2: T1 sequence (looked up)
Briefly: pull-down; as a6, but the Mnl1–Pdi1 complex was pretreated with DPS to induce disulfides between the Mnl1 loop cysteines and the active-site cysteines of Pdi1.

In assay [3] the target is T3, Mnl1 (C579S;C644S)–Pdi1 complex (S. cerevisiae, UniProt P38888 21-796; P17967 29-522, C579S | C644S).
T3 construct: Mnl1 (Htm1) of S. cerevisiae with both loop cysteines substituted; Pdi1 of S. cerevisiae, untagged; also called double-cysteine mutant; source: S. cerevisiae, overexpressed, purified (anti-FLAG M2 resin, Superdex 200); not shown: FLAG, C-terminal, kept
T3 sequence (looked up) 1: T2 sequence (looked up) 1 with C624S
T3 sequence (looked up) 2: T1 sequence (looked up)
Described as above.

Residue numbers refer to the chain shown, from its start.

B1: RNase B, completely unfolded (reduced and denatured) (enzyme, UniProt P61823 27-150, looked up)
chain: KETAAAKFERQHMDSSTSAASSSNYCNQMMKSRNLTKDRCKPVNTFVHESLADVQAVCSQKNVACKNGQTNCYQSYSTMSITDCRETGSSKYPNCAYKTTQANKHIIVACEGNPYVPVHFDASV
modifications: N-glycan; cysteines reduced; DyLight 680 (NHS ester) label in the pull-downs
notes: RNase B, reduced and denatured; also called RBun; unfolded RNase B; source: prepared from RB with 6 M guanidine hydrochloride and 100 mM DTT, denaturants removed by dialysis and a desalting column
As to B1, the “molar excess for half-maximal inhibition of the Mnl1–Pdi1 disulfide adduct” value in assay [1] came out at 2 fold molar excess. Also, the binding result in assay [2] and in assay [3] was “binds” each time.
